Test results: publication PMC8041999

Legend:
Test in all cases: multiplexed single-antigen bead assay (Luminex); 5 µg PE-conjugated KIR tetramers, 30 min at room temperature, with LABScreen HLA Class I Single Antigen beads; MFI normalised to the highest value of each experiment
[1] = target: bead-bound HLA-C*14:02 presenting a broad repertoire of peptides (human)
[2] = target: bead-bound HLA-C*17:01 presenting a broad repertoire of peptides (human)
[3] = target: bead-bound HLA-C*15:02 presenting a broad repertoire of peptides (human)

Chain of soluble tetrameric form of KIR2DL2 (PE-conjugated KIR tetramer) (P43627 22-245): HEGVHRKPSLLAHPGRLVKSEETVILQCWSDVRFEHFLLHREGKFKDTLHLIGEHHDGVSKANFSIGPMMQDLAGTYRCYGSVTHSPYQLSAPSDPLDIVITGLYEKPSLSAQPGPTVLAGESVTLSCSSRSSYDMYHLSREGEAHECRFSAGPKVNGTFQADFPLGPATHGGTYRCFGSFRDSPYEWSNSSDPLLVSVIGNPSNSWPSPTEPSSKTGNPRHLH
Chain of soluble tetrameric form of KIR2DL3 (PE-conjugated KIR tetramer) (P43628 22-245): as the sequence (P43627 22-245) above, with R16P, E35Q, C148R, I200T, K216E counted along it

Substance	percent of the avidity of the top binding allomorph [1]	percent of the top avidity [2]	percent of the top avidity [3]	percent of the maximum avidity [1]
soluble tetrameric form of KIR2DL2 (PE-conjugated KIR tetramer) (from UniProt P43627 22-245) (receptor)	14.7%	55%	55%	–
soluble tetrameric form of KIR2DL3 (PE-conjugated KIR tetramer) (from UniProt P43628 22-245) (receptor)	–	–	–	43%
